For one molecule, % of CRV peptide-binding activity retained after 125I-labelling results are on record in patent US20070207967A1, “Peptide Inhibitors of Matrix Metalloproteinase Activity” (CTT CANCER TARGETING TECHNOLOGIES OY, priority 2004, published 2007).

Ends that are not written are not given here.

The target of the experiment is 125I-labelled MMP-9 C domain (UniProt P14780). The experiment can be described thus: phage-binding assay, 125I-labelled against unlabelled MMP-9 C domain.
Sequence of 125I-labelled MMP-9 C domain (P14780 513-707 limits assumed, form in doubt): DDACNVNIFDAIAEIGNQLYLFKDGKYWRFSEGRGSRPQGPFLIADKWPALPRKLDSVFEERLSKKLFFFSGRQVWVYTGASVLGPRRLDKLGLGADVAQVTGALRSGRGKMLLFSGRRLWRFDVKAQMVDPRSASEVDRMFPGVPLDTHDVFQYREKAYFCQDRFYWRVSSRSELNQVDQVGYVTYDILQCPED

B1: CRV phage (… displayed on phage) (peptide)
peptide: CRVYGPYLLC
modifications: cysteine pairing not given here; also: displayed on phage as coat protein fusion
B1 returned a % of CRV peptide-binding activity retained after 125I-labelling of 40%.
